Experiment [1] concerns the target T1, P467_RHIPU, purified, C-terminal StrepII-8xHis tag (Rhipicephalus pulchellus, UniProt L7M8Z8 22-127).
T1 sequence: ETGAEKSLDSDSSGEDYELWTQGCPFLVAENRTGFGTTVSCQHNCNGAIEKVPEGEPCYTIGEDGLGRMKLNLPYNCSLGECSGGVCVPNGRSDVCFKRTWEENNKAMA
Put plainly: BLI; Kd and koff determination: His-tagged evasin immobilised on Ni-NTA biosensor (OctetRed), chemokine dilutions from 300 nM to 0.4 nM, 30 °C, same buffer as the screen; reference protein subtracted; 1:1 model with global fit, or steady state; each experiment once. Conditions: both partners purified.

In experiment [2] the target is T2, P991_AMBCA, purified, C-terminal StrepII-8xHis tag (Amblyomma cajennense, UniProt A0A023FFD0 29-136).
T2 sequence: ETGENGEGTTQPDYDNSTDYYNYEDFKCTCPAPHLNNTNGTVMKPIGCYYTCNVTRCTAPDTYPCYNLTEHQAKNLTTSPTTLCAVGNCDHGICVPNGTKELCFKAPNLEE
The description is as above. Conditions: both partners purified.

B1: CCL11 (ligand)
chain: not shown
notes: source: bought: Peprotech
For B1, in experiment [1], the binding result is on record as “binds”.

B2: CCL7 (ligand)
chain: not shown
notes: source: bought: Peprotech
B2 had a dissociation half-life in experiment [2] of 2.4 h.

B3: CCL1 (ligand, human, UniProt P22362 24-96, looked up)
chain: KSMQVPFSRCCFSFAEQEIPLRAILCYRNTSSICSNEGLIFKLKRGKEACALDTVGWVQRHRKMLRHCPSKRK
notes: source: bought: Peprotech
For the molecule B3, in experiment [1], the binding result was “binds”.

B4: CCL5 (ligand, human, UniProt P13501 24-91, looked up)
chain: SPYSSDTTPCCFAYIARPLPRAHIKEYFYTSGKCSNPAVVFVTRKNRQVCANPEKKWVREYINSLEMS
notes: source: bought: Peprotech
Turning to B4, the binding result in experiment [2] and in experiment [1] was “binds” each time.

B5: CCL8 (ligand, human, UniProt P80075 24-99, looked up)
chain: QPDSVSIPITCCFNVINRKIPIQRLESYTRITNIQCPKEAVIFKTKRGKEVCADPKERWVRDSMKHLDQIFQNLKP
notes: source: bought: Peprotech
For the molecule B5, in experiment [1], the binding result is recorded as “binds”.

B6: CCL3 (ligand, human, UniProt P10147 24-92, looked up)
chain: SLAADTPTACCFSYTSRQIPQNFIADYFETSSQCSKPGVIFLTKRSRQVCADPSEEWVQKYVSDLELSA
notes: source: bought: Peprotech
Regarding B6, in experiment [1], the binding result is on record as “binds”.

B7: CCL18 (ligand, human, UniProt P55774 21-89, looked up)
chain: AQVGTNKELCCLVYTSWQIPQKFIVDYSETSPQCPKPGVILLTKRGRQICADPNKKWVQKYISDLKLNA
notes: source: bought: Peprotech
As to B7, the binding result in experiment [2] and in experiment [1] was “binds” throughout.

Source of the values: PMC5487423, “Yeast surface display identifies a family of evasins from ticks with novel polyvalent CC chemokine-binding activities” (Scientific Reports, 2017).
